# Measurements from patent US20080050776A1.
# Columns and labels:
# Sortilin co-receptor = Sortilin co-receptor (UniProt O54861); assay: cell-based or functional assay
# [1] = biological target: p75 neurotrophin receptor (p75NTR) (UniProt P07174); assay: cell-based or functional assay
# Sequence of UniProt P07174 (P07174 30-425): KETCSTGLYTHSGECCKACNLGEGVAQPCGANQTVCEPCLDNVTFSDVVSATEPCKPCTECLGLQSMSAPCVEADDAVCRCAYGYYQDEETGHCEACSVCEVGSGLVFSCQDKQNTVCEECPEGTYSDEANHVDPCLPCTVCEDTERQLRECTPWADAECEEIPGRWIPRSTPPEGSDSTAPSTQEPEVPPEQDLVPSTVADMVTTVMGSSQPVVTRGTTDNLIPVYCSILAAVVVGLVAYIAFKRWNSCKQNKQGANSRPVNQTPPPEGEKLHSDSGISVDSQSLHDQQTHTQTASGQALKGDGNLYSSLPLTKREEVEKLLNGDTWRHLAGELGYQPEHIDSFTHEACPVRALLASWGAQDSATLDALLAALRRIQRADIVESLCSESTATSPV
# Sequence of UniProt O54861 (O54861 74-825 limits assumed): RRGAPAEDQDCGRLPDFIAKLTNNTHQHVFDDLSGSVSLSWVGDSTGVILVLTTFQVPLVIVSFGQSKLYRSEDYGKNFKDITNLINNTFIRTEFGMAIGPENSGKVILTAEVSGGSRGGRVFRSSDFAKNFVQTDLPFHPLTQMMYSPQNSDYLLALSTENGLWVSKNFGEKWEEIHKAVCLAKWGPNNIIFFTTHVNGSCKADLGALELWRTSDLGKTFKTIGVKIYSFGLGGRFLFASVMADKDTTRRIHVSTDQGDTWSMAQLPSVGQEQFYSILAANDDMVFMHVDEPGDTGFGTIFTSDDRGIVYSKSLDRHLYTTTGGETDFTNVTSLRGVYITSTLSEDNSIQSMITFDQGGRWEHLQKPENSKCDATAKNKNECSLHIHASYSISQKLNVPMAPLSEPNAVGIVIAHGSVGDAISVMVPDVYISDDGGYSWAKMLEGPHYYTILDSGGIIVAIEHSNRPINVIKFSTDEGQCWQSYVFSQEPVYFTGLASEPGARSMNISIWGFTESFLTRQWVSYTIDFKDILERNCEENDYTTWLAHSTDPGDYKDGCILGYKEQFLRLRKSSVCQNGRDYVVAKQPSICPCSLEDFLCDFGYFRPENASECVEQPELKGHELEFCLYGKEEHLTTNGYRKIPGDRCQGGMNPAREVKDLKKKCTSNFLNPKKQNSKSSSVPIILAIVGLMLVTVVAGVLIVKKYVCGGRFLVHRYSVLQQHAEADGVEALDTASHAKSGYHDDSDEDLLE
substance,measurement,setting,value
proNGF123 (mutated mouse proNGF with mutations at all three processing sites) (ligand),"cell death of PC-12 cells, trypan blue analysis 72 hours post treatment (2 nM)",Sortilin co-receptor,> 90%
same,"cell death of PC-12 cells, trypan blue analysis 72 hours post treatment (2 nM)",[1],> 90%
